Results from patent US20210214414A1 (Pfizer, published 2021).

Assays:
Rabbit SLIT2-N = molecular target: T1, Rabbit SLIT2-N (rabbit, UniProt G1TMD3 31-1121); assay: HTRF competition: d2-labelled rabbit SLIT2-N binding to human ROBO2 on HEK293 cells; geometric mean, n=3
T1 construct: domain: SLIT2-N; d2-labelled in the HTRF assay
T1 sequence: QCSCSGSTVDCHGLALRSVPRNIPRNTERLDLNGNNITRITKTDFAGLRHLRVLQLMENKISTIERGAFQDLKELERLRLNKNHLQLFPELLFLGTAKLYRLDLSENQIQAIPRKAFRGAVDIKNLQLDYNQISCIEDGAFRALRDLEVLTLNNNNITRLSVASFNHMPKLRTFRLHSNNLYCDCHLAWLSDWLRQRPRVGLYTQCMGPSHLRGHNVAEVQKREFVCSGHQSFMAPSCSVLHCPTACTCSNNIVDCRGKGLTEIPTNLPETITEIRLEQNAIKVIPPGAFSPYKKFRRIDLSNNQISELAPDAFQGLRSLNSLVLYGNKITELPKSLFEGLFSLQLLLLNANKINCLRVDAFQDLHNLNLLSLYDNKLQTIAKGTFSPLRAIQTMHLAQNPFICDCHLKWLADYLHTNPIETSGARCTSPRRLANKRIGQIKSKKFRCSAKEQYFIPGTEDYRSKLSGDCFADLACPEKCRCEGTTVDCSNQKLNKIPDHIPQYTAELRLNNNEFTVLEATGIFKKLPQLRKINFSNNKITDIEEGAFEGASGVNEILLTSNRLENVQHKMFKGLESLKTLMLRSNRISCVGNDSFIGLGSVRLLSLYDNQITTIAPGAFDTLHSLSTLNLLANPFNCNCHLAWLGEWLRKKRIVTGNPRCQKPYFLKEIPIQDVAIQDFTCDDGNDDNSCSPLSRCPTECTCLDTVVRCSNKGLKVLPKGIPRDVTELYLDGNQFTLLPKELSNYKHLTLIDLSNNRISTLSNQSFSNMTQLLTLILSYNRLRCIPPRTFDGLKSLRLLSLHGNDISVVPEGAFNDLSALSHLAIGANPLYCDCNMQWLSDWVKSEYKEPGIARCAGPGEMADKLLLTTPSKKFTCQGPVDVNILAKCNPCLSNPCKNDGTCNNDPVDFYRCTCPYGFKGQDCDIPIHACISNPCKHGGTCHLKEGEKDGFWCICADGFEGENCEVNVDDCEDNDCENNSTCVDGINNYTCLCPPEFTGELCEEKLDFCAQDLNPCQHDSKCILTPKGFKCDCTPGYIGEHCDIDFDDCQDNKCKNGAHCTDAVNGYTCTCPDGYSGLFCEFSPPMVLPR
Description: (§1) After incubation, fluorescence at 665 nm and 620 nm was measured on an Envision multilabel plate reader. The HTRF Ratio was calculated as follows: fluorescence at 665 nm/fluorescence at 620 nm×10,000. […] The IC₅₀ for each SLITx-N was determined using an 11-point, 4-fold dilution series with a top concentration of 4000 nM.

Human SLIT2-N = molecular target: T2, Human SLIT2-N (human, UniProt O94813 31-1121, limits assumed); assay: HTRF competition: d2-labelled human SLIT2-N binding to human ROBO2 on HEK293 cells; geometric mean, n=4; Table 2 species panel; geometric mean, n=4
T2 construct: domain: SLIT2-N (N terminal fragment); Soluble analyte in SPR, d2-labelled in HTRF, overexpressed on HEK293 cells in flow cytometry; also called human SLIT2-N (N terminal fragment)
T2 sequence (looked up): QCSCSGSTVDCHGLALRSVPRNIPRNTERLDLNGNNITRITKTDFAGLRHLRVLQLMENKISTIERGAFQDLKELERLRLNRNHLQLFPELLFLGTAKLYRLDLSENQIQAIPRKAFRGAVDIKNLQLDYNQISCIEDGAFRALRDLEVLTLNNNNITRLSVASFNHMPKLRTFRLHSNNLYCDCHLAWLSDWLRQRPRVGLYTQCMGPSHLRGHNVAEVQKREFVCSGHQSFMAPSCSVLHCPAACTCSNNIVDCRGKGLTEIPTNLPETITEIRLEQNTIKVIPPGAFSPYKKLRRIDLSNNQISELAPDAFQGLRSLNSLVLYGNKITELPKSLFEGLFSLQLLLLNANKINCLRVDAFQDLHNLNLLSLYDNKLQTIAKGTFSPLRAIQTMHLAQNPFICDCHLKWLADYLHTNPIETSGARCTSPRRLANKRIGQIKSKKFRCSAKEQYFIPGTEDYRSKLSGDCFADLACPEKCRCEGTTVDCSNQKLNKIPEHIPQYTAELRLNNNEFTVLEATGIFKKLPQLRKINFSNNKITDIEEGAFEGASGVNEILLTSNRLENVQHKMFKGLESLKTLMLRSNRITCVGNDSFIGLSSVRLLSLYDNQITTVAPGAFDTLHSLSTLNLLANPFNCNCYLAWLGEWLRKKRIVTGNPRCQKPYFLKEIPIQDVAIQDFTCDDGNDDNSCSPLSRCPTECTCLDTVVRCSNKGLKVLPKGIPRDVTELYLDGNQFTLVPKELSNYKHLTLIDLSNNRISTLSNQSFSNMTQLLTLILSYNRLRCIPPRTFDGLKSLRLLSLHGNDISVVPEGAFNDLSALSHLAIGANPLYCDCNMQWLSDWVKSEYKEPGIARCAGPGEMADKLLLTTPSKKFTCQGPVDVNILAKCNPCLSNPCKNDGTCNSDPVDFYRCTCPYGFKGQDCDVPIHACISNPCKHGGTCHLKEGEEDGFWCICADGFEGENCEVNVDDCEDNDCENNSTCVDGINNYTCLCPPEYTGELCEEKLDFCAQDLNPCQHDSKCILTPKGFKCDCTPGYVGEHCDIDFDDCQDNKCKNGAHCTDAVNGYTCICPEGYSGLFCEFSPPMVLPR
Description: as §1

B1: ROBO2-Fc 2.2 (Fc fusion)
chain: SRLRQEDFPPRIVEHPSDVIVSKGEPTTLNCKAEGRPTPTIEWYKDGERVETDKDDPRSHRMLLPSGSLFFLRIVHGRRSKPDEGSYVCVARNYLGEAVSRNASLEVALLRDDFRQNPTDVVVAAGEPAILECQPPRGHPEPTIYWKKDKVRIDDKEERISIRGGKLMISNTRKSDAGMYTCVGTNMVGERDSDPAELTVFERGGSGGSEPKSSDKTHTCPPCPAPEAAGAPSVFLFPPKPKDTLMISRTPEVTCVVVDVSHEDPEVKFNWYVDGVEVHNAKTKPREEQYNSTYRVVSVLTVLHQDWLNGKEYKCKVSNKALPAPIEKTISKAKGQPREPQVYTLPPSREEMTKNQVSLTCLVKGFYPSDIAVEWESNGQPENNYKTTPPVLDSDGSFFLYSKLTVDKSRWQQGNVFSCSVMHEALHNHYTQKSLSLSPG
notes: Labelled with Alexa Fluor 647 in the flow cytometry assay; also called ROBO-Fc 2.2; ROBO2-Fc 2.2-AF647
B1 gave an IC50 (Rabbit SLIT2-N) of 5.7 nM and an IC50 (Human SLIT2-N) of 3.9 nM.
